Data as given in PMC3900686, “Mechanisms of the Scaffold Subunit in Facilitating Protein Phosphatase 2A Methylation” (PLoS ONE, 2014).

How the values were obtained:
[1] = biological target: T1, PP2A catalytic Cα-subunit (free PP2Ac) ( ("mammalian PP2Ac"), UniProt P67775 1-309); assay: pull-down; core enzymes assembled on the maltose resin with the immobilized MBP-tagged truncated A-subunits; conditions: both partners purified
T1 construct: PP2A Cα-subunit (PP2Ac); negligible methylation as purified; also called C-subunit; full-length PP2Ac

[2] = biological target: T2, PP2A scaffold Aα-subunit (full-length A-subunit) (UniProt P30153 1-589); assay: assembly and purification of the core enzyme; stable PP2A core enzyme assembled from A-subunit and PP2Ac and purified as previously described [17]; conditions: both partners purified
T2 construct: PP2A scaffold Aα-subunit, 15 HEAT repeats; called the full-length A-subunit; the methods say that residues 9–54 were retained in all constructs, and the FRET fusion is Aα (9–589); The true N-terminal limit may be residue 9; also called scaffold subunit

[3] = biological target: T1, PP2A catalytic Cα-subunit (free PP2Ac); assay: ITC; 200 µM LCMT-1 (pre-loaded with SAH) titrated to 20 µM PP2A; 25°C; 20 mM Tris pH 7.5, 50 mM NaCl, 50 µM MnCl2; VP-ITC; conditions: both partners purified
[4] = biological target: PP2A core enzyme with the A-subunit mutant A_R183E ( |  ("mammalian …, UniProt P30153 1-589; P67775 1-309, A_R183E); assay: cell-based or functional assay
[5] = biological target: PP2A core enzyme with the A-subunit mutant A_R258E ( |  ("mammalian …, UniProt P30153 1-589; P67775 1-309, A_R258E); assay: cell-based or functional assay
[6] = biological target: the molecule itself; assay: SEC; gel filtration chromatography of wild type and mutant A-subunits

B1: A-subunit mutant missing HEAT repeats 2–8 (AΔHR2–8) (domain or fragment, UniProt P30153 9-589, looked up)
chain: SLYPIAVLIDELRNEDVQLRLNSIKKLSTIALALGVERTRSELLPFIKELVSDANQHVKSALASVIMGLSPILGKDNTIEHLLPLFLAQLKDECPEVRLNIISNLDCVNEVIGIRQLSQSLLPAIVELAEDAKWRVRLAIIEYMPLLAGQLGVEFFDEKLNSLCMAWLVDHVYAIREAATSNLKKLVEKFGKEWAHATIIPKVLAMSGDPNYLHRMTTLFCINVLSEVCGQDITTKHMLPTVLRMAGDPVANVRFNVAKSLQKIGPILDNSTLQSEVKPILEKLTQDQDVDVKYFAQEALTVLSLA
notes: the FRET fusion is Aα (9–589); source: E. coli DH5α, MBP-tagged, immobilised on maltose resin
binding result [1]: binds

B2: A-subunit mutant missing HEAT repeats 2–10 (AΔHR2–10, mini-A) (domain or fragment, UniProt P30153 9-589, looked up)
chain: SLYPIAVLIDELRNEDVQLRLNSIKKLSTIALALGVERTRSELLPFIVELAEDAKWRVRLAIIEYMPLLAGQLGVEYFDEKLNSLCMAWLVDHVYAIREAATSNLKKLVEKFGKEWAHATIIPKVLAMSGDPNYLHRMTTLFCINVLSEVCGQDITTKHMLPTVLRMAGDPVANVRFNVAKSLQKIGPILDNSTLQSEVKPILEKLTQDQDVDVKYFAQEALTVLSLA
notes: as for B1
binding result [1]: binds

B3: PP2Ac with internal deletion of five residues of the PP2Ac-tail (PP2AcΔ294–298) (enzyme, UniProt P67775 1-309, looked up)
chain: MDEKVFTKELDQWIEQLNECKQLSESQVKSLCEKAKEILTKESNVQEVRCPVTVCGDVHGQFHDLMELFRIGGKSPDTNYLFMGDYVDRGYYSVETVTLLVALKVRYRERITILRGNHESRQITQVYGFYDECLRKYGNANVWKYFTDLFDYLPLTALVDGQIFCLHGGLSPSIDTLDHIRALDRLQEVPHEGPMCDLLWSDPDDRGGWGISPRGAGYTFGQDISETFNHANGLTLVSRAHQLVMEGYNWCHDRNVVTIFSAPNYCYRCGNQAAIMELDDTLKYSFLQFDPAPHVTRRTPDYFL
notes: Probably made as the wild-type Cα-subunit (insect cells, His8 tag cleaved); also called shortened PP2Ac
binding result [2]: binds

B4: PP2A-specific leucine carboxyl methyltransferase 1 (LCMT-1) (enzyme, human, UniProt Q9UIC8 1-334, looked up)
chain: MATRQRESSITSCCSTSSCDADDEGVRGTCEDASLCKRFAVSIGYWHDPYIQHFVRLSKERKAPEINRGYFARVHGVSQLIKAFLRKTECHCQIVNLGAGMDTTFWRLKDEDLLPSKYFEVDFPMIVTRKLHSIKCKPPLSSPILELHSEDTLQMDGHILDSKRYAVIGADLRDLSELEEKLKKCNMNTQLPTLLIAECVLVYMTPEQSANLLKWAANSFERAMFINYEQVNMGDRFGQIMIENLRRRQCDLAGVETCKSLESQKERLLSNGWETASAVDMMELYNRLPRAEVSRIESLEFLDEMELLEQLMRHYCLCWATKGGNELGLKEITY
notes: human LCMT-1, cloned into pET15b; For ITC it was pre-loaded with SAH (0.5 mM, 10 min, 37°C)
fold reduction of binding affinity against the core enzyme [3]: ~4 fold
stoichiometry N [3]: < 1
Km of methylation of the PP2A core enzyme by LCMT-1 (3H-SAM), fold increase against the wild-type core enzyme [4]: 1.5 fold
Km of methylation of the PP2A core enzyme by LCMT-1 (3H-SAM), fold increase against the wild-type core enzyme [5]: 2 fold

B5: A-subunit mutant A_D61A/E62K/E100A/E101K (natural protein, UniProt P30153 1-589, looked up)
chain: MAAADGDDSLYPIAVLIDELRNEDVQLRLNSIKKLSTIALALGVERTRSELLPFLTDTIYAKDEVLLALAEQLGTFTTLVGGPEYVHCLLPPLESLATVAKTVVRDKAVESLRAISHEHSPSDLEAHFVPLVKRLAGGDWFTSRTSACGLFSVCYPRVSSAVKAELRQYFRNLCSDDTPMVRRAAASKLGEFAKVLELDNVKSEIIPMFSNLASDEQDSVRLLAVEACVNIAQLLPQEDLEALVMPTLRQAAEDKSWRVRYMVADKFTELQKAVGPEITKTDLVPAFQNLMKDCEAEVRAAASHKVKEFCENLSADCRENVIMSQILPCIKELVSDANQHVKSALASVIMGLSPILGKDNTIEHLLPLFLAQLKDECPEVRLNIISNLDCVNEVIGIRQLSQSLLPAIVELAEDAKWRVRLAIIEYMPLLAGQLGVEFFDEKLNSLCMAWLVDHVYAIREAATSNLKKLVEKFGKEWAHATIIPKVLAMSGDPNYLHRMTTLFCINVLSEVCGQDITTKHMLPTVLRMAGDPVANVRFNVAKSLQKIGPILDNSTLQSEVKPILEKLTQDQDVDVKYFAQEALTVLSLA
notes: PP2A scaffold Aα-subunit, multiple mutant D61A/E62K/E100A/E101K; Probably made as the wild-type A-subunit
binding result [6]: binds
